In the assay the target is hnRNP F/H (human (endogenous in 293)). As to the kind of experiment: co-IP; extracts of 293 cells expressing FLAG-SRSF10, RS1-FLAG, RS2-FLAG or RS1-ΔΔ-FLAG, lysed in NET-2 buffer (50 mM Tris-HCl pH 7.4, 150 mM NaCl, 0.05% NP-40), treated with RNase A; anti-hnRNP F, H or K antibodies on protein G magnetic beads, overnight at 4°C; blot with anti-FLAG; cells treated or not with oxaliplatin.

The values that follow come from article PMC5483951.

FLAG-SRSF10, sequence (O75494 whole entry): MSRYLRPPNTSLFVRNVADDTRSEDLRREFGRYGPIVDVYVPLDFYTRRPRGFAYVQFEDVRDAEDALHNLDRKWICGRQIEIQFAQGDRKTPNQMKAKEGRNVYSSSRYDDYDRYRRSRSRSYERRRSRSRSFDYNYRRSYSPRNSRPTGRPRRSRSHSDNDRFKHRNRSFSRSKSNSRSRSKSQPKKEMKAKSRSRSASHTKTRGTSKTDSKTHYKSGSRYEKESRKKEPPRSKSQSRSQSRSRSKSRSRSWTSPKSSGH

The substance “FLAG-SRSF10 (from UniProt O75494 1-262) (natural protein)” displayed a percent of total SRSF10 associated of 0.5 to 1%.
